This is an account of results in doi:10.1101/2021.05.05.442822.

One assay concerns the target H3K9me0 peptide. The assay can be described thus: FP. The following applies: complex.
Assay [1] has as its target G9a ANK-SET, N-terminally 6xHis-tagged (His:G9a) or N-terminally Maltose Binding Protein tagged (MBP:G9a) (human). The assay can be described thus: pull-down.
For assay [2], the target named is fluoresceinated H3 1-20 K9me2 peptide (UniProt P68431). In words: fluorescence polarisation.
In assay [3] the target is unmethylated (H3K9me0) mononucleosome. In words: fluorescence polarisation.
Assay [4] has as its target G9a ANK-SET, tag cleaved (human). The assay can be described thus: SEC-MALS.

G9a ANK-SET homodimer, sequence (Q96KQ7 whole entry, looked up): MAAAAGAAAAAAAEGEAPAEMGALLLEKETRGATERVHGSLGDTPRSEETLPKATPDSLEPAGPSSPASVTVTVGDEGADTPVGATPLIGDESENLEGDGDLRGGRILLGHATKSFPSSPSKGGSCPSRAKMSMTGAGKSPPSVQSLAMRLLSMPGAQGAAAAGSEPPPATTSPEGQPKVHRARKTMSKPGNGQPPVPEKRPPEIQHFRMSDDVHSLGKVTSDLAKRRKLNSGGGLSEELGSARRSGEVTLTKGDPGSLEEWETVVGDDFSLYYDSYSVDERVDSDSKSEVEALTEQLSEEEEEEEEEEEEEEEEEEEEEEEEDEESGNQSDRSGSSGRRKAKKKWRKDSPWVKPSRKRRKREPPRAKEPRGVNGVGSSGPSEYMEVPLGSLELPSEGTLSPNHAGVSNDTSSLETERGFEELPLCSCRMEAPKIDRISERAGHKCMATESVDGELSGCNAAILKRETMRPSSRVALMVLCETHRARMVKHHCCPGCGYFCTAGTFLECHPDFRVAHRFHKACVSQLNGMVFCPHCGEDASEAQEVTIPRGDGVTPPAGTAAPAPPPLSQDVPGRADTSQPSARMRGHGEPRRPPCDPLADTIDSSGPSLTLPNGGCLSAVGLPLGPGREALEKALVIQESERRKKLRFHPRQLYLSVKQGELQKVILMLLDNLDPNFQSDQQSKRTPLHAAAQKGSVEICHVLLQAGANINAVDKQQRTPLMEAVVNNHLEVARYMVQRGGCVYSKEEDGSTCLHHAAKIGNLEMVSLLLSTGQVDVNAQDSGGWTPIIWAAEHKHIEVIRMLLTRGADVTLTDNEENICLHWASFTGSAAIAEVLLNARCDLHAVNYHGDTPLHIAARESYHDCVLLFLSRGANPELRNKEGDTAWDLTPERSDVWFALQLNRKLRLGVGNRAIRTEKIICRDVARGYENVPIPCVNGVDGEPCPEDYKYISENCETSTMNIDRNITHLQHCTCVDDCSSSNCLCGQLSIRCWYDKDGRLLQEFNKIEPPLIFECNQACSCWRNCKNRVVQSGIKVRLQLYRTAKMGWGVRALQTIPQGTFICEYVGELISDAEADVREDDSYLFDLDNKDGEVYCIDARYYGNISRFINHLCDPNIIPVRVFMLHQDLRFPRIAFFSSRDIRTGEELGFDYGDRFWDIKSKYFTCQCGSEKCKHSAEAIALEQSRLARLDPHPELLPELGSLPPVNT

By Kd is commonly meant a measure of binding affinity in units of concentration. On to “G9a ANK-SET homodimer (from UniProt Q96KQ7)”, for which the Kd with H3K9me0 peptide was 100 µM.

One may read the stoichiometry N as a count of units in the complex or per binding partner. As for “G9a ANK-SET, N-terminally 6xHis-tagged (His:G9a) or N-terminally Maltose Binding Protein tagged (MBP:G9a) (domain or fragment)”, the stoichiometry N in assay [1] came to 2.

For GLP ANK-SET homodimer (complex), in assay [2], the fold reduced binding came to 12.5 times. The Kd in assay [3] was found to be 26.3 µM.

As for “GLP ANK-SET, N-terminally Maltose Binding Protein tagged (MBP:GLP) (domain or fragment)”, the stoichiometry N in assay [1] came out at 1.

The substance “GLP ANK-SET, tag cleaved (domain or fragment)” displayed a stoichiometry N in assay [4] of 1.
